Source: patent publication US10064926B2, “Peptides and combination of peptides for use in immunotherapy against hepatocellular carcinoma (HCC) and other cancers” (Immatics biotechnologies GmbH, priority 2014, dated 2018)

Target: HLA-A*02 (Homo sapiens, UniProt P04439, D140Y/D185E/D98H/E176V/E277Q/G131W/G231S/I119V/I121R/I166T/I218V/N151K/N90K/P208A/P217A/Q86G/Q94H/R138H/R169H)
Assay: UV-ligand exchange / peptide binding to MHC class I (beta2m ELISA)
Details: peptide exchange yield
Description: Candidate peptides for T cell based therapies according to the present invention were further tested for their MHC binding capacity (affinity). The individual peptide-MHC complexes were produced by UV-ligand exchange, where a UV-sensitive peptide is cleaved upon UV-irradiation, and exchanged with the peptide of interest as analyzed. Only peptide candidates that can effectively bind and stabilize the peptide-receptive MHC molecules prevent dissociation of the MHC complexes. To determine the yield of the exchange reaction, an ELISA was performed based on the detection of the light chain (β2m) of stabilized MHC complexes. The assay was performed as generally described in Rodenko et al. (Rodenko B, Toebes M, Hadrup S R, van Esch W J, Molenaar A M, Schumacher T N, Ovaa H. Generation of peptide-MHC class I complexes through UV-mediated ligand exchange. Nat Protoc. 2006; 1(3):1120-32).
96 well MAXISorp plates (NUNC) were coated over night with 2 ug/ml streptavidin in PBS at room temperature, washed 4× and blocked for 1 h at 37° C. in 2% BSA containing blocking buffer. Refolded HLA-A*0201/MLA-001 monomers served as standards, covering the range of 15-500 ng/ml. Peptide-MHC monomers of the UV-exchange reaction were diluted 100 fold in blocking buffer. Samples were incubated for 1 h at 37° C., washed four times, incubated with 2 ug/ml HRP conjugated anti-β2m for 1 h at 37° C., washed again and detected with TMB solution that is stopped with […]. Absorption was measured at 450 nm. Candidate peptides that show a high exchange yield (preferably higher than 50%, most preferred higher than 75%) are generally preferred for a generation and production of antibodies or fragments thereof, and/or T cell receptors or fragments thereof, as they show sufficient avidity to the MHC molecules and prevent dissociation of the MHC complexes.

[1] = Table 10A, UV-ligand exchange, β2m ELISA

Row | Peptide exchange (MHC class I binding score) (Table 10B, HLA-A*02 peptides) | Peptide exchange (MHC class I binding score) [1] | Substance
1 | “++” (≥20% = ++) |  | 298 (TMAKESSIIGV; listed as Homo sapiens) [compound 298]
2 | “+++” (≥50 = +++) |  | 236 (ALADKELLPSV; listed as Homo sapiens) [compound 236]
3 | “++” (≥20% = ++) |  | 183 (YLYNNEEQVGL; listed as Homo sapiens) [compound 183]
4 | “+++” (≥50 = +++) |  | 173 (SLTSEIHFL; listed as Homo sapiens) [compound 173]
5 | “+++” (≥50 = +++) |  | 270 (SVLDQKILL; listed as Homo sapiens) [compound 270]
6 | “++++” (≥75% = ++++) |  | 250 (NLAEVVERV; listed as Homo sapiens) [compound 250]
7 | “+++” (≥50 = +++) |  | 175 (TLFEHLPHI; listed as Homo sapiens) [compound 175]
8 | “+++” (≥50 = +++) |  | 184 (VVLDGGQIVTV; listed as Homo sapiens) [compound 184]
9 | “+++” (≥50 = +++) |  | 164 (RMLIKLLEV; listed as Homo sapiens) [compound 164]
10 | “++++” (≥75% = ++++) |  | 268 (KLYQEVEIASV; listed as Homo sapiens) [compound 268]
11 | “+++” (≥50 = +++) |  | 299 (ALLRVTPFI; listed as Homo sapiens) [compound 299]
12 | “++++” (≥75% = ++++) |  | 234 (YLEPYLKEV; listed as Homo sapiens) [compound 234]
13 | “++++” (≥75% = ++++) |  | 233 (ALLGKLDAI; listed as Homo sapiens) [compound 233]
14 | “+++” (≥50 = +++) |  | 177 (VLDEPYEKV; listed as Homo sapiens) [compound 177]
15 | “+++” (≥50 = +++) |  | 258 (SLMGPVVHEV; listed as Homo sapiens) [compound 258]
16 | “++++” (≥75% = ++++) |  | 231 (RLFNDPVAMV; listed as Homo sapiens) [compound 231]
17 | “+++” (≥50 = +++) |  | 282 (GQFPSYLETV; listed as Homo sapiens) [compound 282]
18 | “+++” (≥50 = +++) |  | 182 (YLLHFPMAL; listed as Homo sapiens) [compound 182]
19 | “++” (≥20% = ++) |  | 259 (TLITDGMRSV; listed as Homo sapiens) [compound 259]
20 | “++” (≥20% = ++) |  | 241 (FVLPLLGLHEA; listed as Homo sapiens) [compound 241]
21 | “+++” (≥50 = +++) |  | 167 (SLAESSFDV; listed as Homo sapiens) [compound 167]
22 | “+++” (≥50 = +++) |  | 288 (LLDDSLVSI; listed as Homo sapiens) [compound 288]
23 | “++++” (≥75% = ++++) |  | 290 (NLIDLDDLYV; listed as Homo sapiens) [compound 290]
24 | “+++” (≥50 = +++) |  | 186 (VLLAQIIQV; listed as Homo sapiens) [compound 186]
25 | “+++” (≥50 = +++) |  | 260 (TLMDMRLSQV; listed as Homo sapiens) [compound 260]

Further lines, the substance ahead of its results:

Row | Substance | Peptide exchange (MHC class I binding score) (Table 10B, HLA-A*02 peptides) | Peptide exchange (MHC class I binding score) [1]
26 | 64 (KILEETLYV; listed as Homo sapiens) [compound 64] | “+++” (≥50 = +++) | 
27 | 152 (KLDNNLDSV; listed as Homo sapiens) [compound 152] | “+++” (≥50 = +++) | 
28 | 8 (KLLEEATISV; listed as Homo sapiens) [compound 8] | “+++” (≥50 = +++) | +++ (50%-75% = +++)
29 | 110 (TVGGSEILFEV; listed as Homo sapiens) [compound 110] | “++++” (≥75% = ++++) | 
30 | 5 (ALVEQGFTV; listed as Homo sapiens) [compound 5] | “++++” (≥75% = ++++) | ++++ (>=75% = ++++)
31 | 50 (FTIPKLYQL; listed as Homo sapiens) [compound 50] | “++” (≥20% = ++) | 
32 | 111 (TVMDIDTSGTFNV; listed as Homo sapiens) [compound 111] | “+++” (≥50 = +++) | 
33 | 106 (TLAAIIHGA; listed as Homo sapiens) [compound 106] | “+++” (≥50 = +++) | 
34 | 124 (LLIDVVTYL; listed as Homo sapiens) [compound 124] | “++++” (≥75% = ++++) | 
35 | 48 (FLLEQPEIQV; listed as Homo sapiens) [compound 48] | “+++” (≥50 = +++) | 
36 | 34 (SLAEGTATV; listed as Homo sapiens) [compound 34] | “+++” (≥50 = +++) | 
37 | 88 (RLIDRIKTV; listed as Homo sapiens) [compound 88] | “++” (≥20% = ++) | 
38 | 114 (VLSQVYSKV; listed as Homo sapiens) [compound 114] | “+++” (≥50 = +++) | 
39 | 71 (KLLDNWDSV; listed as Homo sapiens) [compound 71] | “++++” (≥75% = ++++) | 
40 | 28 (TLQDHLNSL; listed as Homo sapiens) [compound 28] | “+++” (≥50 = +++) | 
41 | 105 (SVYDGKLLI; listed as Homo sapiens) [compound 105] | “++++” (≥75% = ++++) | 
42 | 46 (AMAEMKVVL; listed as Homo sapiens) [compound 46] | “+++” (≥50 = +++) | 
43 | 40 (ALLAEGITWV; listed as Homo sapiens) [compound 40] | “+++” (≥50 = +++) | 
44 | 60 (ILSPLSVAL; listed as Homo sapiens) [compound 60] | “++++” (≥75% = ++++) | 
45 | 86 (RLAAFYSQV; listed as Homo sapiens) [compound 86] | “+++” (≥50 = +++) | 

Row | Substance | Peptide exchange (MHC class I binding score) (Table 10B, HLA-A*02 peptides) | Peptide exchange (MHC class I binding score) [1]
46 | 70 (KLLDLETERILL; listed as Homo sapiens) [compound 70] | “++++” (≥75% = ++++) | 
47 | 139 (ALSSKPAEV; listed as Homo sapiens) [compound 139] | “+++” (≥50 = +++) | 
48 | 42 (ALLGGNVRMML; listed as Homo sapiens) [compound 42] | “+++” (≥50 = +++) | 
49 | 103 (SMGDHLWVA; listed as Homo sapiens) [compound 103] | “+++” (≥50 = +++) | 
50 | 95 (SICNGVPMV; listed as Homo sapiens) [compound 95] | “+++” (≥50 = +++) | 
51 | 157 (QLLPNLRAV; listed as Homo sapiens) [compound 157] | “+++” (≥50 = +++) | 
52 | 150 (GLSNLGIKSI; listed as Homo sapiens) [compound 150] | “++++” (≥75% = ++++) | 
53 | 115 (VVLDDKDYFL; listed as Homo sapiens) [compound 115] | “+++” (≥50 = +++) | 
54 | 158 (RIISGLVKV; listed as Homo sapiens) [compound 158] | “++” (≥20% = ++) | 
55 | 134 (ALLETNPYLL; listed as Homo sapiens) [compound 134] | “++++” (≥75% = ++++) | 
56 | 21 (QLIEVSSPITL; listed as Homo sapiens) [compound 21] | “++++” (≥75% = ++++) | 
57 | 94 (RMSDVVKGV; listed as Homo sapiens) [compound 94] | “+++” (≥50 = +++) | 
58 | 99 (SLSAFLPSL; listed as Homo sapiens) [compound 99] | “++++” (≥75% = ++++) | 
59 | 38 (ALADVVHEA; listed as Homo sapiens) [compound 38] | “+++” (≥50 = +++) | 
60 | 20 (KLSNVLQQV; listed as Homo sapiens) [compound 20] | “++++” (≥75% = ++++) | 
61 | 126 (TLLDSPIKV; listed as Homo sapiens) [compound 126] | “+++” (≥50 = +++) | 
62 | 74 (KLYDLELIV; listed as Homo sapiens) [compound 74] | “+++” (≥50 = +++) | 
63 | 52 (GLFNAELLEA; listed as Homo sapiens) [compound 52] | “+++” (≥50 = +++) | 
64 | 137 (ALPTVLVGV; listed as Homo sapiens) [compound 137] | “++++” (≥75% = ++++) | 
